Measured values taken from US20050058747.

What was measured:
[1] = biological target: T1, soybean Kunitz trypsin inhibitor, P01070
T1 chain: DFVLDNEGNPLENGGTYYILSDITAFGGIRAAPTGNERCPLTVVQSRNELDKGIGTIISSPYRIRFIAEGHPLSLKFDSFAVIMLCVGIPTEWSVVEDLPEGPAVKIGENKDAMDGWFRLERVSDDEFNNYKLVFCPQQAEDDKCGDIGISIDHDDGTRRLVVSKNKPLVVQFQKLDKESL

[2] = biological target: T2, soybean Bowman-Birk inhibitor, P01055
T2 chain: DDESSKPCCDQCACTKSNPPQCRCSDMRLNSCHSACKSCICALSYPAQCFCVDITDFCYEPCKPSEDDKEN

[3] = biological target: Soybean agglutinin (SBA), P05046
Sequence of Soybean agglutinin (SBA), P05046 (P05046 33-285): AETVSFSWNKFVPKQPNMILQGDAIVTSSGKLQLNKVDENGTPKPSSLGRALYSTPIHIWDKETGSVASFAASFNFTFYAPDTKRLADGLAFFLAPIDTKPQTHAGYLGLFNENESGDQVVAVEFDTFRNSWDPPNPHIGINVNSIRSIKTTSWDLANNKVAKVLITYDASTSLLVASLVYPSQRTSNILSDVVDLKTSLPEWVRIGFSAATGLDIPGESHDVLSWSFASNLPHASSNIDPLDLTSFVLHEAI

B1: protease of the invention having amino acids 1-188 of SEQ ID NO: 2 (protease derived from Nocardiopsis dassonvillei subsp. dassonvillei DSM 43235) (protein)
chain: ADIIGGLAYYMGGRCSVGFAATNSAGQPGFVTAGHCGTVGTGVTIGNGTGTFQNSVFPGNDAAFVRGTSNFTLTNLVSRYNSGGYQSVTGTSQAPAGSAVCRSGSTTGWHCGTIQARNQTVRYPQGTVYSLTRTNVCAEPGDSGGSFISGSQAQGVTSGGSGNCSVGGTTYYQEVTPMINSWGVRIRT
Question: For B1, which Percentage degradation of isolated soy proteins (Soybean glycinin) is on record?
Answer: The Percentage degradation of isolated soy proteins was 100%.

Question: And the Percentage degradation of isolated soy proteins [1]?
Answer: Its Percentage degradation of isolated soy proteins is 97%.

Question: What about the Percentage degradation of isolated soy proteins (Soybean beta-conglycinin) of the same protein?
Answer: Its Percentage degradation of isolated soy proteins is 100%.

Question: What about the Percentage degradation of isolated soy proteins [2] of the same protein?
Answer: Its Percentage degradation of isolated soy proteins is 81%.

Question: And the Percentage degradation of isolated soy proteins [3]?
Answer: Its Percentage degradation of isolated soy proteins is 95%.
